# Reference: the supplement of paper PMC10567573
# B1: C20orf112 (parent)
# chain: YANGGLNYSYRGYGALSSNLQPPA
# B2: CLCN6 (parent)
# chain: VGEIVGIITRHNLTYEFLQARLRQ
# Variants of: B1
# Experiment: protein stability index of a GFP-peptide fusion (GPS, HEK-293T) (PSI 1-6); higher = more stable
# Conditions: c terminus: a fixed tail appended
# 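Further: lentivirally expressed fusions sorted by FACS into six bins by GFP to DsRed ratio, PSI derived from sequencing read proportions per bin multiplied by bin number.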
row,Variant,protein stability index
1,P23Q,1.77
2,P23N,2.17
3,P23E,2.05
4,P23D,2.09
5,P23R,1.81
6,P23A,1.81
7,P23S,1.65
8,P23Y,1.9
9,P23M,2.3
10,P23H,1.34
11,P23V,1.84
12,P23G,2.6
13,P23L,1.54
14,P23W,2.61
15,P23T,1.6
16,P23I,2.09
17,P23F,2.52
18,P23C,1.92
19,P23K,1.97
20,A24W,1.86
21,A24F,1.78
22,A24K,2
23,A24P,2.73
24,A24I,2.43

row,Variant,protein stability index
1,A24D,1.86
2,A24L,1.62
3,A24T,2.52
4,A24C,2.37
5,A24G,3.04
6,A24V,2.23
7,A24E,1.95
8,A24Y,1.75
9,A24Q,2.27
10,A24R,2.48
11,A24H,2.19
12,A24S,1.82
13,A24M,1.35
14,A24N,1.9
15,P22I,2.35
16,P22A,1.5
17,P22H,1.94
18,P22D,1.6
19,P22M,1.63
20,P22C,2.97
21,P22E,2.41
22,P22W,1.97
23,P22T,1.71
24,P22F,3.69

row,Variant,protein stability index
1,P22N,2.33
2,P22R,1.76
3,P22S,1.62
4,P22L,2.27
5,P22Q,2
6,P22Y,3.09
7,P22K,2.66
8,P22V,1.83
9,P22G,2.65
10,L20N,2.11
11,L20M,1.52
12,L20T,1.55
13,L20D,1.36
14,L20C,2.7
15,L20Y,1.34
16,L20F,1.55
17,L20W,1.84
18,L20A,1.79
19,L20R,1.73
20,L20H,1.69
21,L20G,2.28
22,L20Q,1.71
23,L20P,1.88
24,L20K,2.27

row,Variant,protein stability index
1,L20I,2.54
2,L20E,1.37
3,L20S,2.34
4,L20V,1.84
5,S18W,2.07
6,S18R,2.21
7,S18Q,2.6
8,S18T,2.05
9,S18Y,1.67
10,S18V,1.73
11,N19I,1.71
12,N19W,2.61
13,N19G,1.42
14,N19D,2.15
15,N19K,2.96
16,N19C,2.05
17,N19T,1.91
18,N19V,1.99
19,N19E,1.11
20,N19R,1.99
21,N19A,1.71
22,N19H,1.43
23,N19L,2.53
24,N19S,2.44

row,Variant,protein stability index
1,N19Q,2.14
2,N19M,1.88
3,N19P,2.18
4,N19F,1.53
5,N19Y,1.57
6,Q21M,1.71
7,Q21G,1.21
8,Q21C,1.74
9,Q21N,1.64
10,Q21H,2.04
11,Q21E,2.16
12,Q21L,1.99
13,Q21S,2.5
14,Q21R,1.75
15,Q21F,2.26
16,Q21P,2.28
17,Q21T,2.61
18,Q21V,1.59
19,Q21D,2.22
20,Q21K,2.17
21,Q21W,1.75
22,Q21I,2.76
23,Q21Y,2.29
24,Q21A,1.66

# Variants of: B2
# Experiment: as above
# Conditions: c terminus: a fixed tail appended
row,Variant,protein stability index
1,G2Q,1.13
2,G2H,2.81
3,G2W,3.19
4,G2A,3.29
5,G2Y,1.98
6,G2K,2.53
7,G2P,1.86
8,G2E,1.75
9,G2C,2.06
10,G2T,2.6
11,G2V,2.66
12,G2M,1.09
13,G2N,3
14,G2D,2.23
15,G2L,2.48
16,I4A,2.1
17,V1T,1.65
18,V1F,2.41
19,V1S,2.31
20,V1C,2.26
21,V1K,2.18
22,V1M,2.29
23,V1D,2.41
24,V1I,2.88

row,Variant,protein stability index
1,V1A,1.44
2,V1G,1.27
3,V1R,1.58
4,V1E,2.25
5,V1L,1.76
6,V1H,2.82
7,V1P,1.44
8,V1N,3.06
9,V1Q,2.08
10,V1Y,2.83
11,V1W,2.47
12,E3C,2.72
13,E3D,2.05
14,E3W,2.42
15,E3V,2.62
16,E3H,2.38
17,E3Y,3.28
18,E3Q,3.17
19,E3P,3.11
20,E3A,2.59
21,E3F,1.43
22,E3T,1.74
23,E3R,2.51
